We go through one substance from article PMC2064081.

For this experiment, the target named is MIM/IMD-L (IRSp53/MIM domain of mouse missing-in-metastasis, longer splice variant) (mouse) (UniProt Q8R1S4). As to the kind of experiment: SPR. For orientation: In SPR one partner is held on a chip, and binding of the other changes the refractive index at the surface.
MIM/IMD-L (IRSp53/MIM domain of mouse missing-in-metastasis, longer splice variant) (mouse), sequence (Q8R1S4 1-250, change not shown): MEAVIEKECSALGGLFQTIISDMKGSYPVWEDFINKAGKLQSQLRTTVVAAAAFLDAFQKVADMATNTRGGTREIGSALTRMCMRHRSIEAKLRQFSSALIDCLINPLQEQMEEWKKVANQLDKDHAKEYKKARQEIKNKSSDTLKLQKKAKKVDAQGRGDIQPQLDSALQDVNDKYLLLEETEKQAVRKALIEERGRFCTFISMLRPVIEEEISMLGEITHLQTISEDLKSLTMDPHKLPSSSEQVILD

Substance “GST-Rac (V12), dominant-active Rac (from UniProt P63000 1-192) (natural protein)” registered an equilibrium binding level relative to MIM/IMD-S of 10 to 15%.
